# In US20230285583A1, “LIQUID FORMULATION OF LONG-ACTING CONJUGATE OF GLUCAGON, GLP-1, AND GIP TRIGONAL AGONIST” (HANMI PHARM, CO., LTD., priority 2020, published 2023):
# Bridge positions count the residues as written; N and C are the ends. Square brackets hold non-standard residues; d marks the D form. Ends that are not written are not given here. * marks the point of attachment. Acetyl(2-(4-imidazolyl)) = O=C(Cc1c[nH]cn1)*; Aib = CC(C)(N)C(=O)O
# T1: human GIP receptor (human, UniProt P48546 22-466)
# T1 sequence (looked up): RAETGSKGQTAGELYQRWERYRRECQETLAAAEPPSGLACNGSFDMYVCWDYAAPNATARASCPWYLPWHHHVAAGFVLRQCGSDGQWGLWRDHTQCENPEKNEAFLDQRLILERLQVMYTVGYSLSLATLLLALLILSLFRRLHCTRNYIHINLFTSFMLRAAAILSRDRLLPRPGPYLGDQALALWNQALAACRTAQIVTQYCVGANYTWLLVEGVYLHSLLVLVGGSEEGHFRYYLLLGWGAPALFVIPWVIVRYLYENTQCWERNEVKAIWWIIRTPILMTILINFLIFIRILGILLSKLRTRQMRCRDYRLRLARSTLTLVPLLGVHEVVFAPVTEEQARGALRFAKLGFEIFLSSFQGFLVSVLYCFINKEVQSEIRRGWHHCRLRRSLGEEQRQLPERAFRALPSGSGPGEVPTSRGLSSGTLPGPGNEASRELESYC
# Target: human GLP-1 receptor (human, UniProt P43220 24-463)
# Sequence (P43220 24-463): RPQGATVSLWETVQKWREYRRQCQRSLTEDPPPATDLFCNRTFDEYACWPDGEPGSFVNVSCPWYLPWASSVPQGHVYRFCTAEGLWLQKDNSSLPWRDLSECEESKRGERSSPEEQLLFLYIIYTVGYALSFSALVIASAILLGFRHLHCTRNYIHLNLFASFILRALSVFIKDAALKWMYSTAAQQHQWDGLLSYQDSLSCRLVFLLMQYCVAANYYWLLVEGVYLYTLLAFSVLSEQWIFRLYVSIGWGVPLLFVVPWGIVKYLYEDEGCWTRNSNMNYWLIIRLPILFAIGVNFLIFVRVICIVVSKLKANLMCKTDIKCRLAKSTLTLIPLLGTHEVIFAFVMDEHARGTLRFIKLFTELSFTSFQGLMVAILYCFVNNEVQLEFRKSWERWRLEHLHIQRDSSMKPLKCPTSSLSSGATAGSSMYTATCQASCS
# Test: cell-based or functional assay
row,Binder,In Vitro Activity Compared to Native Peptide (%) vs. GLP-1 (relative titer from cAMP EC50) [%]
1,[Acetyl(2-(4-imidazolyl))][Aib]QGTFTSDYSKYLDECRAKEFVQWLLDHHPSSGQPPPS (bridge 16-20; not fully specified (bridges)) [trigonal agonist of SEQ ID NO: 28],22.6
2,Y[Aib]QGTFTSDYSKYLDEKAAKDFVQWLLDHHPSSGQPPPSC (bridge 16-20; not fully specified (bridges)) [trigonal agonist of SEQ ID NO: 32],38.7
3,Y[Aib]QGTFTSDYSKYLDERACKDFVQWLLDHHPSSGQPPPS (bridge 16-20; not fully specified (bridges); ends not checked) [trigonal agonist of SEQ ID NO: 26],90.1
4,H[Aib]QGTFTSDYSKYLDEKRQKEFVQWLLDTKC (bridge 16-20; not fully specified (bridges)) [trigonal agonist of SEQ ID NO: 33],51
5,Y[Aib]QGTFTSDCSKYLDERAAKDFVQWLLDHHPSSGQPPPS (bridge 16-20; not fully specified (bridges); ends not checked) [trigonal agonist of SEQ ID NO: 27],11.5
6,[Acetyl(2-(4-imidazolyl))][Aib]QGTFTSDYSKCLDEKRAKEFVQWLLDHHPSSGQPPPS (bridge 16-20; not fully specified (bridges)) [trigonal agonist of SEQ ID NO: 29],12.9
7,Y[Aib]QGTFTSDYSKYLDEKRAKDFVQWLLDHHPSSGQPPPSC (bridge 16-20; not fully specified (bridges)) [trigonal agonist of SEQ ID NO: 31],10.3
8,Y[Aib]QGTFTSDYSKYLDEKAAKEFVQWLLDHHPSSGQPPPSC (bridge 16-20; not fully specified (bridges)) [trigonal agonist of SEQ ID NO: 30],35.1

# Target: human GCG receptor (human, UniProt P47871 26-477)
# Sequence (P47871 26-477): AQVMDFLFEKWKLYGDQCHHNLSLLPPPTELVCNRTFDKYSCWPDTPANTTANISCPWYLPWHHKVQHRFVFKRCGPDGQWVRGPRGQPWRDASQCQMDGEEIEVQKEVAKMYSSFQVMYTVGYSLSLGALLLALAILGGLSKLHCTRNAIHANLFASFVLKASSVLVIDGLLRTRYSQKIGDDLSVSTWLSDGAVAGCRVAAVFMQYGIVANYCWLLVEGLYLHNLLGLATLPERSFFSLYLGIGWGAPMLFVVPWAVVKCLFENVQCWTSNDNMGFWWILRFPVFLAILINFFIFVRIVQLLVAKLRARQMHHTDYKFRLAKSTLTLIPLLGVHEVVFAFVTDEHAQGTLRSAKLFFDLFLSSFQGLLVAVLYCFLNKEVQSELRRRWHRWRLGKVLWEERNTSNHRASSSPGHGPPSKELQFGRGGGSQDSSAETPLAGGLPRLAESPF
# Test: cell-based or functional assay
row,Binder,In Vitro Activity Compared to Native Peptide (%) vs. Glucagon (relative titer from cAMP EC50) [%]
1,[Acetyl(2-(4-imidazolyl))][Aib]QGTFTSDYSKYLDECRAKEFVQWLLDHHPSSGQPPPS (bridge 16-20; not fully specified (bridges)) [trigonal agonist of SEQ ID NO: 28],5.4
2,Y[Aib]QGTFTSDYSKYLDEKAAKDFVQWLLDHHPSSGQPPPSC (bridge 16-20; not fully specified (bridges)) [trigonal agonist of SEQ ID NO: 32],12.2
3,Y[Aib]QGTFTSDYSKYLDERACKDFVQWLLDHHPSSGQPPPS (bridge 16-20; not fully specified (bridges); ends not checked) [trigonal agonist of SEQ ID NO: 26],12.7
4,H[Aib]QGTFTSDYSKYLDEKRQKEFVQWLLDTKC (bridge 16-20; not fully specified (bridges)) [trigonal agonist of SEQ ID NO: 33],14
5,Y[Aib]QGTFTSDCSKYLDERAAKDFVQWLLDHHPSSGQPPPS (bridge 16-20; not fully specified (bridges); ends not checked) [trigonal agonist of SEQ ID NO: 27],1
6,[Acetyl(2-(4-imidazolyl))][Aib]QGTFTSDYSKCLDEKRAKEFVQWLLDHHPSSGQPPPS (bridge 16-20; not fully specified (bridges)) [trigonal agonist of SEQ ID NO: 29],0.9
7,Y[Aib]QGTFTSDYSKYLDEKRAKDFVQWLLDHHPSSGQPPPSC (bridge 16-20; not fully specified (bridges)) [trigonal agonist of SEQ ID NO: 31],47.6
8,Y[Aib]QGTFTSDYSKYLDEKAAKEFVQWLLDHHPSSGQPPPSC (bridge 16-20; not fully specified (bridges)) [trigonal agonist of SEQ ID NO: 30],8.5

# Target: T1, human GIP receptor
# Test: cell-based or functional assay
row,Binder,In Vitro Activity Compared to Native Peptide (%) vs. GIP (relative titer from cAMP EC50) [%]
1,[Acetyl(2-(4-imidazolyl))][Aib]QGTFTSDYSKYLDECRAKEFVQWLLDHHPSSGQPPPS (bridge 16-20; not fully specified (bridges)) [trigonal agonist of SEQ ID NO: 28],3
2,Y[Aib]QGTFTSDYSKYLDEKAAKDFVQWLLDHHPSSGQPPPSC (bridge 16-20; not fully specified (bridges)) [trigonal agonist of SEQ ID NO: 32],35.5
3,Y[Aib]QGTFTSDYSKYLDERACKDFVQWLLDHHPSSGQPPPS (bridge 16-20; not fully specified (bridges); ends not checked) [trigonal agonist of SEQ ID NO: 26],94.7
4,H[Aib]QGTFTSDYSKYLDEKRQKEFVQWLLDTKC (bridge 16-20; not fully specified (bridges)) [trigonal agonist of SEQ ID NO: 33],0.12
5,Y[Aib]QGTFTSDCSKYLDERAAKDFVQWLLDHHPSSGQPPPS (bridge 16-20; not fully specified (bridges); ends not checked) [trigonal agonist of SEQ ID NO: 27],1.6
6,[Acetyl(2-(4-imidazolyl))][Aib]QGTFTSDYSKCLDEKRAKEFVQWLLDHHPSSGQPPPS (bridge 16-20; not fully specified (bridges)) [trigonal agonist of SEQ ID NO: 29],1
7,Y[Aib]QGTFTSDYSKYLDEKRAKDFVQWLLDHHPSSGQPPPSC (bridge 16-20; not fully specified (bridges)) [trigonal agonist of SEQ ID NO: 31],11.7
8,Y[Aib]QGTFTSDYSKYLDEKAAKEFVQWLLDHHPSSGQPPPSC (bridge 16-20; not fully specified (bridges)) [trigonal agonist of SEQ ID NO: 30],18
